Assay results as given in paper PMC4081085.

Key:
Experiment in all cases: fluorescence polarization
[1] = tested on: PARP-2 WT; conditions: none, FP: 5 nM labeled DNA, 30 min, RT, PARP-1/-2 buffer per cited ref 19, PARP-3 in 12 mM HEPES pH 8.0, 30 mM KCl (low) or 60 mM KCl (intermediate), 0.12 mM EDTA
[2] = tested on: dNTR-PARP-2; conditions: 5' phosphate on one strand, FP: 5 nM labeled DNA, 30 min, RT, PARP-1/-2 buffer per cited ref 19, PARP-3 in 12 mM HEPES pH 8.0, 30 mM KCl (low) or 60 mM KCl (intermediate), 0.12 mM EDTA
[3] = tested on: PARP-2 Y188F; conditions: 5' phosphate on one strand, FP: 5 nM labeled DNA, 30 min, RT, PARP-1/-2 buffer per cited ref 19, PARP-3 in 12 mM HEPES pH 8.0, 30 mM KCl (low) or 60 mM KCl (intermediate), 0.12 mM EDTA
[4] = tested on: PARP-2 N116A; conditions: 5' phosphate on one strand, FP: 5 nM labeled DNA, 30 min, RT, PARP-1/-2 buffer per cited ref 19, PARP-3 in 12 mM HEPES pH 8.0, 30 mM KCl (low) or 60 mM KCl (intermediate), 0.12 mM EDTA
[5] = tested on: PARP-2 R140A; conditions: 5' phosphate on one strand, FP: 5 nM labeled DNA, 30 min, RT, PARP-1/-2 buffer per cited ref 19, PARP-3 in 12 mM HEPES pH 8.0, 30 mM KCl (low) or 60 mM KCl (intermediate), 0.12 mM EDTA
[6] = tested on: PARP-2 W138A; conditions: 5' phosphate on one strand, FP: 5 nM labeled DNA, 30 min, RT, PARP-1/-2 buffer per cited ref 19, PARP-3 in 12 mM HEPES pH 8.0, 30 mM KCl (low) or 60 mM KCl (intermediate), 0.12 mM EDTA
[7] = tested on: PARP-3 Y150F; conditions: 5' phosphate at nick, position 24, FP: 5 nM labeled DNA, 30 min, RT, PARP-1/-2 buffer per cited ref 19, PARP-3 in 12 mM HEPES pH 8.0, 30 mM KCl (low) or 60 mM KCl (intermediate), 0.12 mM EDTA
[8] = tested on: dNTR-PARP-3; conditions: low ionic strength buffer?, 5' phosphate at nick, position 24, FP: 5 nM labeled DNA, 30 min, RT, PARP-1/-2 buffer per cited ref 19, PARP-3 in 12 mM HEPES pH 8.0, 30 mM KCl (low) or 60 mM KCl (intermediate), 0.12 mM EDTA
[9] = tested on: PARP-3 R103A; conditions: 5' phosphate at nick, position 24, FP: 5 nM labeled DNA, 30 min, RT, PARP-1/-2 buffer per cited ref 19, PARP-3 in 12 mM HEPES pH 8.0, 30 mM KCl (low) or 60 mM KCl (intermediate), 0.12 mM EDTA

Q: 28-bp duplex 5'OH (non-phosphorylated) was tested. Which binding signal (fold lower affinity than for 5'P DNA) [1] did it give?
A: 2.5

Q: Which binding signal (fold lower affinity than WT) [2] does the source give for 28-bp duplex 5'P (template 18) here?
A: 4

Q: What about the binding signal (% of WT affinity) [3] of the same substance?
A: 7

Q: What about the binding signal (% of WT affinity) [4] of the same substance?
A: 45

Q: What about the binding signal (% of WT affinity) [5] of the same substance?
A: 25

Q: And the binding signal (% of WT affinity) [6]?
A: 28

Q: Which binding signal (% of WT affinity) [7] does the source give for 47-bp duplex with 5'P nick (template 8) here?
A: 54

Q: And the binding signal (fold lower affinity than WT) [8]?
A: 3.5

Q: And the binding signal (% of WT affinity) [9]?
A: 25
